{"source": "paper PMC5340008", "about": "(BMC Biochemistry, 2017)", "key": {"[1]": {"target": "Bacillus anthracis Bla1 β-lactamase (Bacillus anthracis)"}, "TEM-1 β-lactamase": {"target": "TEM-1 β-lactamase (UniProt P62593 24-286)", "assay": "β-lactamase inhibition assay (nitrocefin hydrolysis, Morrison tight-binding fit); increasing concentrations of BLIP incubated with 1 nM β-lactamase for 1 h at room temperature in 50 mM sodium phosphate pH 7.0; nitrocefin added at its Km, initial velocity at 482 nm; Ki calculated from Ki app", "settings": "both partners purified"}, "KPC-2 β-lactamase": {"target": "KPC-2 β-lactamase (UniProt Q9F663 25-293)", "assay": "β-lactamase inhibition assay (nitrocefin hydrolysis, Morrison tight-binding fit); increasing concentrations of BLIP incubated with 1 nM β-lactamase for 1 h at room temperature in 50 mM sodium phosphate pH 7.0; nitrocefin added at its Km, initial velocity at 482 nm; Ki calculated from Ki app", "settings": "both partners purified"}}}
{"molecule": "β-lactamase inhibitory protein (BLIP), wild type (from UniProt P35804 37-201) (natural protein)", "values": [{"measurement": "Ki", "setting": "[1]", "value": 2.5, "unit": "nM"}]}
{"molecule": "BLIP [change] (natural protein) AGVMTGAKFTQIQFGMTRQQVLDIAGAENCETGGSFGDSIHCRGHAAGDQYAYATFGFTSAAADAKVDSKSQEKLLAPSAPTLTLAKFNQVTVGMTRAQVLATVGQGSCTTWSEYYPAYPSTAGVTLSLSCFDVDGYSSTGFYRGSAHLWFTDGVLQGKRQWDLV", "values": [{"measurement": "Ki", "setting": "TEM-1 β-lactamase", "value": 0.24, "unit": "nM"}, {"measurement": "Ki", "setting": "KPC-2 β-lactamase", "value": 1, "unit": "nM"}]}
{"molecule": "BLIP [change] (natural protein) AGVMTGAKFTQIQFGMTRQQVLDIAGAENCETGGSFGDSIHCRGHAAGDMYAYATFGFTSAAADAKVDSKSQEKLLAPSAPTLTLAKFNQVTVGMTRAQVLATVGQGSCTTWSEYYPAYPSTAGVTLSLSCFDVDGYSSTGFYRGSAHLWFTDGVLQGKRQWDLV", "values": [{"measurement": "Ki", "setting": "TEM-1 β-lactamase", "value": 0.11, "unit": "nM"}, {"measurement": "Ki", "setting": "KPC-2 β-lactamase", "value": 0.5, "unit": "nM"}]}
{"molecule": "BLIP [change] (natural protein) AGVMTGAKFTQIQFGMTRQQVLDIAGAENCETGGSFGDSIHCRGHAAGDAYAYATFGFTSAAADAKVDSKSQEKLLAPSAPTLTLAKFNQVTVGMTRAQVLATVGQGSCTTWSEYYPAYPSTAGVTLSLSCFDVDGYSSTGFYRGSAHLWFTDGVLQGKRQWDLV", "values": [{"measurement": "Ki", "setting": "KPC-2 β-lactamase", "value": 1.9, "unit": "nM"}]}
{"molecule": "BLIP [change] (natural protein) AGVMTGAKFTQIQFGMTRQQVLDIAGAENCETGGSFGDSIHCRGHAAGDPYAYATFGFTSAAADAKVDSKSQEKLLAPSAPTLTLAKFNQVTVGMTRAQVLATVGQGSCTTWSEYYPAYPSTAGVTLSLSCFDVDGYSSTGFYRGSAHLWFTDGVLQGKRQWDLV", "values": [{"measurement": "Ki", "setting": "TEM-1 β-lactamase", "value": 40, "unit": "nM"}, {"measurement": "Ki", "setting": "KPC-2 β-lactamase", "value": 5, "unit": "nM"}]}
{"molecule": "BLIP [change] (natural protein) AGVMTGAKFTQIQFGMTRQQVLDIAGAENCETGGSFGDSIHCRGHAAGDKYAYATFGFTSAAADAKVDSKSQEKLLAPSAPTLTLAKFNQVTVGMTRAQVLATVGQGSCTTWSEYYPAYPSTAGVTLSLSCFDVDGYSSTGFYRGSAHLWFTDGVLQGKRQWDLV", "values": [{"measurement": "Ki", "setting": "TEM-1 β-lactamase", "value": 195, "unit": "nM"}, {"measurement": "Ki", "setting": "KPC-2 β-lactamase", "value": 260, "unit": "nM"}]}
{"molecule": "BLIP [change] (natural protein) AGVMTGAKFTQIQFGMTRQQVLDIAGAENCETGGSFGDSIHCRGHAAGDNYAYATFGFTSAAADAKVDSKSQEKLLAPSAPTLTLAKFNQVTVGMTRAQVLATVGQGSCTTWSEYYPAYPSTAGVTLSLSCFDVDGYSSTGFYRGSAHLWFTDGVLQGKRQWDLV", "values": [{"measurement": "Ki", "setting": "TEM-1 β-lactamase", "value": 7.8, "unit": "nM"}, {"measurement": "Ki", "setting": "KPC-2 β-lactamase", "value": 3.8, "unit": "nM"}]}
{"molecule": "BLIP [change] (natural protein) AGVMTGAKFTQIQFGMTRQQVLDIAGAENCETGGSFGDSIHCRGHAAGDDYAYATFGFTSAAADAKVDSKSQEKLLAPSAPTLTLAKFNQVTVGMTRAQVLATVGQGSCTTWSEYYPAYPSTAGVTLSLSCFDVDGYSSTGFYRGSAHLWFTDGVLQGKRQWDLV", "values": [{"measurement": "Ki", "setting": "TEM-1 β-lactamase", "value": 160, "unit": "nM"}, {"measurement": "Ki", "setting": "KPC-2 β-lactamase", "value": 3.2, "unit": "nM"}]}
{"molecule": "BLIP [change] (natural protein) AGVMTGAKFTQIQFGMTRQQVLDIAGAENCETGGSFGDSIHCRGHAAGDTYAYATFGFTSAAADAKVDSKSQEKLLAPSAPTLTLAKFNQVTVGMTRAQVLATVGQGSCTTWSEYYPAYPSTAGVTLSLSCFDVDGYSSTGFYRGSAHLWFTDGVLQGKRQWDLV", "values": [{"measurement": "Ki", "setting": "TEM-1 β-lactamase", "value": 2.5, "unit": "nM"}, {"measurement": "Ki", "setting": "KPC-2 β-lactamase", "value": 3.5, "unit": "nM"}]}
{"molecule": "BLIP [change] (natural protein) AGVMTGAKFTQIQFGMTRQQVLDIAGAENCETGGSFGDSIHCRGHAAGDCYAYATFGFTSAAADAKVDSKSQEKLLAPSAPTLTLAKFNQVTVGMTRAQVLATVGQGSCTTWSEYYPAYPSTAGVTLSLSCFDVDGYSSTGFYRGSAHLWFTDGVLQGKRQWDLV", "values": [{"measurement": "Ki", "setting": "TEM-1 β-lactamase", "value": 60, "unit": "nM"}, {"measurement": "Ki", "setting": "KPC-2 β-lactamase", "value": 42, "unit": "nM"}]}
{"molecule": "BLIP [change] (natural protein) AGVMTGAKFTQIQFGMTRQQVLDIAGAENCETGGSFGDSIHCRGHAAGDRYAYATFGFTSAAADAKVDSKSQEKLLAPSAPTLTLAKFNQVTVGMTRAQVLATVGQGSCTTWSEYYPAYPSTAGVTLSLSCFDVDGYSSTGFYRGSAHLWFTDGVLQGKRQWDLV", "values": [{"measurement": "Ki", "setting": "TEM-1 β-lactamase", "value": 69, "unit": "nM"}, {"measurement": "Ki", "setting": "KPC-2 β-lactamase", "value": 11, "unit": "nM"}]}
{"molecule": "BLIP [change] (natural protein) AGVMTGAKFTQIQFGMTRQQVLDIAGAENCETGGSFGDSIHCRGHAAGDSYAYATFGFTSAAADAKVDSKSQEKLLAPSAPTLTLAKFNQVTVGMTRAQVLATVGQGSCTTWSEYYPAYPSTAGVTLSLSCFDVDGYSSTGFYRGSAHLWFTDGVLQGKRQWDLV", "values": [{"measurement": "Ki", "setting": "TEM-1 β-lactamase", "value": 1.1, "unit": "nM"}, {"measurement": "Ki", "setting": "KPC-2 β-lactamase", "value": 5, "unit": "nM"}]}
{"molecule": "BLIP [change] (natural protein) AGVMTGAKFTQIQFGMTRQQVLDIAGAENCETGGSFGDSIHCRGHAAGDEYAYATFGFTSAAADAKVDSKSQEKLLAPSAPTLTLAKFNQVTVGMTRAQVLATVGQGSCTTWSEYYPAYPSTAGVTLSLSCFDVDGYSSTGFYRGSAHLWFTDGVLQGKRQWDLV", "values": [{"measurement": "Ki", "setting": "TEM-1 β-lactamase", "value": 76, "unit": "nM"}, {"measurement": "Ki", "setting": "KPC-2 β-lactamase", "value": 5.5, "unit": "nM"}]}
{"molecule": "BLIP [change] (natural protein) AGVMTGAKFTQIQFGMTRQQVLDIAGAENCETGGSFGDSIHCRGHAAGDLYAYATFGFTSAAADAKVDSKSQEKLLAPSAPTLTLAKFNQVTVGMTRAQVLATVGQGSCTTWSEYYPAYPSTAGVTLSLSCFDVDGYSSTGFYRGSAHLWFTDGVLQGKRQWDLV", "values": [{"measurement": "Ki", "setting": "TEM-1 β-lactamase", "value": 0.17, "unit": "nM"}, {"measurement": "Ki", "setting": "KPC-2 β-lactamase", "value": 0.7, "unit": "nM"}]}
{"molecule": "BLIP [change] (natural protein) AGVMTGAKFTQIQFGMTRQQVLDIAGAENCETGGSFGDSIHCRGHAAGDHYAYATFGFTSAAADAKVDSKSQEKLLAPSAPTLTLAKFNQVTVGMTRAQVLATVGQGSCTTWSEYYPAYPSTAGVTLSLSCFDVDGYSSTGFYRGSAHLWFTDGVLQGKRQWDLV", "values": [{"measurement": "Ki", "setting": "TEM-1 β-lactamase", "value": 5, "unit": "nM"}, {"measurement": "Ki", "setting": "KPC-2 β-lactamase", "value": 1.4, "unit": "nM"}]}
{"molecule": "BLIP [change] (natural protein) AGVMTGAKFTQIQFGMTRQQVLDIAGAENCETGGSFGDSIHCRGHAAGDGYAYATFGFTSAAADAKVDSKSQEKLLAPSAPTLTLAKFNQVTVGMTRAQVLATVGQGSCTTWSEYYPAYPSTAGVTLSLSCFDVDGYSSTGFYRGSAHLWFTDGVLQGKRQWDLV", "values": [{"measurement": "Ki", "setting": "TEM-1 β-lactamase", "value": 0.4, "unit": "nM"}, {"measurement": "Ki", "setting": "KPC-2 β-lactamase", "value": 0.72, "unit": "nM"}]}
{"molecule": "BLIP [change] (natural protein) AGVMTGAKFTQIQFGMTRQQVLDIAGAENCETGGSFGDSIHCRGHAAGDVYAYATFGFTSAAADAKVDSKSQEKLLAPSAPTLTLAKFNQVTVGMTRAQVLATVGQGSCTTWSEYYPAYPSTAGVTLSLSCFDVDGYSSTGFYRGSAHLWFTDGVLQGKRQWDLV", "values": [{"measurement": "Ki", "setting": "TEM-1 β-lactamase", "value": 3.5, "unit": "nM"}, {"measurement": "Ki", "setting": "KPC-2 β-lactamase", "value": 10, "unit": "nM"}]}
{"molecule": "BLIP [change] (natural protein) AGVMTGAKFTQIQFGMTRQQVLDIAGAENCETGGSFGDSIHCRGHAAGDWYAYATFGFTSAAADAKVDSKSQEKLLAPSAPTLTLAKFNQVTVGMTRAQVLATVGQGSCTTWSEYYPAYPSTAGVTLSLSCFDVDGYSSTGFYRGSAHLWFTDGVLQGKRQWDLV", "values": [{"measurement": "Ki", "setting": "TEM-1 β-lactamase", "value": 11, "unit": "nM"}, {"measurement": "Ki", "setting": "KPC-2 β-lactamase", "value": 1.1, "unit": "nM"}]}
{"molecule": "BLIP [change] (natural protein) AGVMTGAKFTQIQFGMTRQQVLDIAGAENCETGGSFGDSIHCRGHAAGDFYAYATFGFTSAAADAKVDSKSQEKLLAPSAPTLTLAKFNQVTVGMTRAQVLATVGQGSCTTWSEYYPAYPSTAGVTLSLSCFDVDGYSSTGFYRGSAHLWFTDGVLQGKRQWDLV", "values": [{"measurement": "Ki", "setting": "TEM-1 β-lactamase", "value": 10.3, "unit": "nM"}, {"measurement": "Ki", "setting": "KPC-2 β-lactamase", "value": 15, "unit": "nM"}]}
